This note sets out measurements from patent US6682736.

For experiment [1], the target named is T1, CTLA-4-IgG1 fusion protein (human).
T1 construct: Mature extracellular domain of human CTLA-4 fused to human IgG1 constant domains, no hinge, covalent dimer through cysteine 120; The oncostatin M signal peptide is cleaved; also called OM-CTLA4-IgG1 Fusion Protein; CTLA-4-Ig fusion protein
As to the kind of experiment: BIAcore; CTLA-4-Ig on chip, 457.2 RU.

Experiment [2] concerns the target T1, CTLA-4-IgG1 fusion protein. As to the kind of experiment: BIAcore; CTLA-4-Ig on chip, 504.5 RU. In general terms: SPR reads the build-up and loss of mass on a sensor chip optically.
Experiment [3] concerns the target T1, CTLA-4-IgG1 fusion protein. As to the kind of experiment: BIAcore; CTLA-4-Ig on chip, 878.7 RU.
Experiment [4] addresses T2, CTLA-4-Ig(G4) (UniProt P16410 37-161, limits assumed).
T2 construct: Bought (Repligen, Inc.); not shown: IgG4 portion of the bought fusion protein
As to the kind of experiment: competition ELISA: CTLA-4-Ig(G4) to coated B7.1-Ig(G1); n = 2. In general terms: ELISA stands for enzyme-linked immunosorbent assay.

Experiment [5] deals with T2, CTLA-4-Ig(G4). Description: competition ELISA: CTLA-4-Ig(G4) to coated B7.2-Ig(G1); n = 3.
In experiment [6] the target is T1, CTLA-4-IgG1 fusion protein. Description: BIAcore; CTLA-4-Ig on chip, 397.8 RU.
The target in experiment [7] is T1, CTLA-4-IgG1 fusion protein. As to the kind of experiment: selectivity ELISA, antibody 1 µg/ml; CTLA-4/Ig over B7.2/Ig; n = 3.
Experiment [8] deals with T1, CTLA-4-IgG1 fusion protein. Description: selectivity ELISA, antibody 1 µg/ml; CTLA-4/Ig over CD28/Ig; n = 3.
Experiment [9] deals with T1, CTLA-4-IgG1 fusion protein. Description: selectivity ELISA, antibody 1 µg/ml; CTLA-4/Ig over CD44/Ig; n = 3.
In another experiment the target is T3, CTLA-4-Ig(G1) (UniProt P16410 37-161, limits assumed).
T3 construct: also called CTLA4 (IGEN assay); not shown: IgG1 portion
As to the kind of experiment: IGEN ECL bead assay, antibody 1 µg/ml; CTLA-4-Ig(G1) over CD28-Ig(G1); n = 2.

T1 sequence (chain, as listed by the source): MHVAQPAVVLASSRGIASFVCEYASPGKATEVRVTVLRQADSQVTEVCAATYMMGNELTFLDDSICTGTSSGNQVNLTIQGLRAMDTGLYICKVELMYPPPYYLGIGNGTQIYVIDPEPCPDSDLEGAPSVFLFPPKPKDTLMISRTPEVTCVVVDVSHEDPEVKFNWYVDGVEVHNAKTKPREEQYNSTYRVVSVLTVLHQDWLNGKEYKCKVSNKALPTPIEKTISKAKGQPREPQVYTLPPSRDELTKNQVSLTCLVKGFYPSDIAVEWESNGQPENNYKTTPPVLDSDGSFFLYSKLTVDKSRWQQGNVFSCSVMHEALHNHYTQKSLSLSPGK
T2 sequence (P16410 37-161 limits assumed): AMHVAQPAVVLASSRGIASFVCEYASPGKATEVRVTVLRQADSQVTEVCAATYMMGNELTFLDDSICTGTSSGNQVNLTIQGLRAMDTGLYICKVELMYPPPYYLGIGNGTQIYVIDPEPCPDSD
T3 sequence (P16410 37-161 limits assumed): as above

B1: 4.10.2 (antibody, human IgG2, V domains shown)
VH: GVVQPGRSLRLSCVASGFIFSSHGIHWVRQAPGKGLEWVAVIWYDGRNKDYADSVKGRFTISRDNSKNTLYLQMNSLRAEDTAVYYCARVAPLGPLDYWGQGTLVTVSS
VL: SPGTLSLSPGERATLSCRASQSISSNFLAWYQQKPGQAPRLLIYRPSSRATGIPDSFSGSGSGTDFTLTISRLEPEDFALYYCQQYGTSPFTFGPGTKVDIKR
notes: Fully human IgG2 kappa (hybridoma); also called CT-4.10.2
By Kd is commonly meant the constant that tells how readily two partners part at equilibrium. Higher therefore signals weaker binding. Usually koff stands for the first-order rate constant of dissociation. The low end stands for slow dissociation, the high end for fast dissociation. The term kon denotes the second-order rate constant of association. Low values mean slow association, high ones fast association. As usually defined, the IC50 is the point on the concentration scale where inhibition reaches its midpoint. High values mean weaker potency in that assay, low ones greater potency in that assay. With B1, in [1], the Ka was 1.4e+09 M⁻¹, the Kd worked out at 0.721 nM, the koff came to 0.000505 s⁻¹ and the on-rate constant (kon) came out at 700000 M⁻¹ s⁻¹. In addition, in experiment [2], the Ka came out at 2.2e+09 M⁻¹; the affinity, expressed as Kd, was 0.455 nM; the koff amounted to 0.00043 s⁻¹; the kon was 940000 M⁻¹ s⁻¹. In experiment [3], this molecule yielded a Ka of 3.9e+09 M⁻¹, a dissociation constant Kd of 0.254 nM, an off-rate (koff) of 0.000253 s⁻¹ and a kon of 1e+06 M⁻¹ s⁻¹. This molecule showed an IC50 with CTLA-4-Ig(G4) [4] of 3.39 nM. In the experiment with CTLA-4-Ig(G4) [5], this molecule registered an IC50 of 1.5 nM.

B2: 2.1.3 (antibody, human IgG4, V domains shown)
VH: SGPGLVKPSQILSLTCTVSGGSISSGGHYWSWIRQHPGKGLEWIGYIYYIGNTYYNPSLKSRVTISVDTSKNQFSLKLSSVTAADTAVYYCARDSGDYYGIDVWGQGTTVTVSS
VL: SPDFQSVTPKEKVTITCRASQSIGSSLHWYQQKPDQSPKLLIKYASQSFSGVPSRFSGSGSGTDFTLTINSLEAEDAATYYCHQSSSLPLTFGGGTKVEIKR
On to B2, for which, in experiment [6], the Ka turned out to be 9e+08 M⁻¹, the equilibrium dissociation constant (Kd) worked out at 1.17 nM, the koff turned out to be 0.0013 s⁻¹ and the on-rate (kon) is 1.11e+06 M⁻¹ s⁻¹. In experiment [2], this molecule had a Ka of 9e+08 M⁻¹, a Kd of 1.12 nM, a koff of 0.00131 s⁻¹ and a kon of 1.17e+06 M⁻¹ s⁻¹. For the same molecule, in experiment [3], the Ka was 1.3e+09 M⁻¹, the dissociation constant (Kd) stood at 0.772 nM, the off-rate (koff) came out at 0.000959 s⁻¹ and the kon stood at 1.24e+06 M⁻¹ s⁻¹.

B3: 3.1.1 (antibody, V domains shown)
VH: GVVQPGRSLRLSCAASGFTFSSYGMHWVRQAPGKGLEWVAVIWYDGSNKYYADSVKGRFTISRDNSKNTLYLQMNSLRAEDTAVYYCARGARIITPCMDVWGQGTTVTVSS
VL: QSPSSLSASVGDRVTITCRASQSINTYLIWYQQKPGKAPNFLISATSILQSGVPSRFRGSGSGTNFTLTINSLHPEDFATYYCQQSYSTPFTFGPGTKVDIKR
notes: also called CT-3.1.1
For B3, the Ka was determined as 4.4e+09 M⁻¹ in experiment [6], 4.4e+09 M⁻¹ in [1], 5.5e+09 M⁻¹ in [2] and 1.07e+10 M⁻¹ in experiment [3]. The Kd in [6] came out at 0.228 nM; in [1], 0.227 nM; in [2], 0.182 nM; in [3], 0.093 nM. The koff in experiment [6] turned out to be 0.000207 s⁻¹; in [1] it was 0.000165 s⁻¹; in [2], 0.000172 s⁻¹; in [3], 9.6e-05 s⁻¹. Also, the kon in [6] came out at 910000 M⁻¹ s⁻¹; in [1], 730000 M⁻¹ s⁻¹; in experiment [2], 950000 M⁻¹ s⁻¹; in experiment [3], 1.04e+06 M⁻¹ s⁻¹. Further, the IC50 with CTLA-4-Ig(G4) [4] was found to be 0.63 nM; in the experiment with CTLA-4-Ig(G4) [5], 0.45 nM. For the same molecule, the “selectivity ratio CTLA4/B7.2” value in experiment [7] is > 500 :1. Moreover, the “selectivity ratio CTLA4/CD28” value (in [8]; in the experiment with CTLA-4-Ig(G1)) was > 500 :1 in each case. The “selectivity ratio CTLA4/CD44” value in experiment [9] was > 500 :1.
